US20260167681A1 (POSTECH RESEARCH AND BUSINESS DEVELOPMENT FOUNDATION, published 2026)

Target: T1, ovalbumin (OVA) (UniProt P01012 2-386)
T1 construct: also called model antigen ovalbumin
T1 sequence (looked up): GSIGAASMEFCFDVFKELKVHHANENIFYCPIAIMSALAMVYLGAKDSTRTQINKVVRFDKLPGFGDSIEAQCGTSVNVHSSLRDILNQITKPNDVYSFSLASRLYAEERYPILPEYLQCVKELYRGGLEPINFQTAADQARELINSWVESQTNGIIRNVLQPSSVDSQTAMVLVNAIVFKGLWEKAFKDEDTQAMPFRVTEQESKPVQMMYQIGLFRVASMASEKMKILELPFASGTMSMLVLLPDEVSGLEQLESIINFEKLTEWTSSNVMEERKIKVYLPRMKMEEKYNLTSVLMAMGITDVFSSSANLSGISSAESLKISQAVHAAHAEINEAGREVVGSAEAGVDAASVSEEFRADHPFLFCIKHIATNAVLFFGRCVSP
Experiment: zeta potential (DLS, Zetasizer) of ovalbumin/MAP-AP mixtures at weight ratios 2, 1 and 0.5
Procedure: First, ovalbumin and the adhesive adjuvant protein (MAP-AP) were prepared at a concentration of 1 mg/mL each, and nanocomplexes were then prepared with ovalbumin and MAP-AP at weight ratios of 2, 1, and 0.5, respectively. Dynamic light scattering (DLS, Zetasizer, UK) was used to measure the surface charge of the samples. The concentration of each substance was maintained below 1 mg/mL, and all measurements were performed at room temperature.
As a result, the spontaneous formation of nanocomplexes by the negatively charged ovalbumin and adhesive adjuvant protein (MAP-AP) was confirmed through changes in surface charge. When the mass ratio of ovalbumin to MAP-AP reached 1 or higher, the adhesive adjuvant protein (MAP-AP) became saturated, and the mass ratio was ultimately set to 1.

B1: adhesive adjuvant protein (MAP-AP; MAP-based Adjuvant Protein) (other)
chain: MAKPSYPPTYKAKPSYPPTYKAKPSYPPTYKAKPSYPPTYKAKPSYPPTYKAKPSYPPTYKPWSSEEYKGGYYPGNTYHYHSGGSYHGSGYHGGYKGKYYGKAKKYYYKYKNSGKYKYLKKARKYHRKGYKKYYGGGSSAKPSYPPTYKAKPSYPPTYKAKPSYPPTYKAKPSYPPTYKAKPSYPPTYKAKPSYPPTYKLGGGGSAKFVAAWTLKAAA
notes: Recombinant fusion protein made in E. coli; also called MAP-based Adhesive adjuvant protein
- mass ratio of ovalbumin to MAP-AP at which MAP-AP is saturated: ≥ 1 mass ratio (ovalbumin:MAP-AP)
